Target: T1, CTCF (UniProt P49711 1-727)
T1 sequence: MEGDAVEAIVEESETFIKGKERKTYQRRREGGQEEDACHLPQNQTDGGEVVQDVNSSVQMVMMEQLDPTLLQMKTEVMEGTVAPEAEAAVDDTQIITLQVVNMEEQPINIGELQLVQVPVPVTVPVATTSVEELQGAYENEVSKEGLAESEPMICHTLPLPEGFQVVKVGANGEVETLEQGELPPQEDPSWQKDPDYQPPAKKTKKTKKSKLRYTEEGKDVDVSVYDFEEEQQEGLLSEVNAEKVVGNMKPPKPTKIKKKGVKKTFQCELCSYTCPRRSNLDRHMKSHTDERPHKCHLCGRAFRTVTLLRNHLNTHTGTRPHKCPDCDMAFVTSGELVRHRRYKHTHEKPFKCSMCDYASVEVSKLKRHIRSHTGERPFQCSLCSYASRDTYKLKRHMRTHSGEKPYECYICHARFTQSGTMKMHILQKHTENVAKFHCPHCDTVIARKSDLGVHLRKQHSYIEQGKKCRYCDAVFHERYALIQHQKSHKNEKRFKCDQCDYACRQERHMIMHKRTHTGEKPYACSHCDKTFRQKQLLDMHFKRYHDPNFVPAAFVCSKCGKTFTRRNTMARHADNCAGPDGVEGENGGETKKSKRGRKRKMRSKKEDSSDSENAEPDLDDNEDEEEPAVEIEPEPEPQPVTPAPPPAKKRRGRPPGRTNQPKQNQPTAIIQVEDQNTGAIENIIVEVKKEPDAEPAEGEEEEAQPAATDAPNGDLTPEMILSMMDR
Test: MST; sonicated salmon sperm DNA competitor (2000 ng); MST: 125 nM DNA, 0-12.5 uM protein, 1X EMSA buffer (from 4X: 100 mM KCl, 20 mM HEPES pH 8.0, 0.2 mM EDTA, 20% glycerol) with 1 mM DTT (fresh), salmon sperm DNA; 60 min on ice
Settings: protein: recombinant; tags: His; label: 5' FAM (5-carboxyfluorescein) on forward strand; blunt

B1: Wt S13 49-mer (dsDNA)
DNA 1: TTTGTTAATCTTTAGTGGGAACTAGTGGGAGTGCTGTGCCTCGGGTACC
DNA 2: GGTACCCGAGGCACAGCACTCCCACTAGTTCCCACTAAAGATTAACAAA
  Kd: 4.8 ± 2.3 µM

— PMC9876287, “Characterization of a new CCCTC-binding factor binding site as a dual regulator of Epstein-Barr virus latent infection”
